Tests used:
[1] = target: Triuret hydrolase (TrtA) from Herbaspirillum sp. BH-1, wild type, His-tag cleaved (Herbaspirillum sp. BH-1); assay: SEC; HiLoad 16/600 Superdex 200 pg, 50 mM Tris, 200 mM sodium chloride, pH 8, 1 ml/min; His-tag cleaved TrtA
NC(=O)NC(N)=O = test system: T1, NC(=O)NC(N)=O; assay: ammonia release, Berthelot assay; assay type: biochemical, Rhodococcus sp. Mel; conditions: phosphate buffer, pH optimum, 25 °C
T1 construct: recombinant

NC(=O)NC(=O)NC(N)=O = test system: T2, NC(=O)NC(=O)NC(N)=O; assay: ammonia release, Berthelot assay; assay type: biochemical, Rhodococcus sp. Mel; conditions: phosphate buffer, pH optimum, 25 °C, saturation not achieved
T2 construct: recombinant

Chain of RhdBiuH (Rhodococcus sp. Mel) (chain, as listed by the source): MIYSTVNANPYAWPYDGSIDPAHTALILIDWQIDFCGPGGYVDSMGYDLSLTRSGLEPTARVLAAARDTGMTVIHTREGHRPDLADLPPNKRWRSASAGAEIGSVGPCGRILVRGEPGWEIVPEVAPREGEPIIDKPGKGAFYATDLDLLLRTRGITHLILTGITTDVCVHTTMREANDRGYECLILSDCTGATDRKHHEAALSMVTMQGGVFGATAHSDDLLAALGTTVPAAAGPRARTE

stoichiometry N [1] | Substance | Km (NC(=O)NC(N)=O) | kcat (NC(=O)NC(=O)NC(N)=O) | kcat/Km (NC(=O)NC(=O)NC(N)=O)
2 | Triuret hydrolase (TrtA) from Herbaspirillum sp. BH-1, wild type, His-tag cleaved (from UniProt A0A2N6JFX7 1-220) (enzyme) | – | – | –
– | RhdBiuH (Rhodococcus sp. Mel) | 95 ± 26 µM | 0.14 s⁻¹ | 170 ± 40 M⁻¹ s⁻¹

Source: PMC7948467, “Discovery of an ultraspecific triuret hydrolase (TrtA) establishes the triuret biodegradation pathway” (The Journal of Biological Chemistry, 2020)
